{
  "source": "patent US20250003978A1",
  "about": "“DIAGNOSIS AND TREATMENT OF ANTI-PF4 INDUCED THROMBOCYTOPENIA” (The Regents of the University of California, priority 2021, published 2025)",
  "molecules": {"B1": {"name": "PF4 (platelet factor 4, chemokine CXCL4), preparation generated in the inventors' lab (ligand)", "chain": "EAEEDGDLQCLCVKTTSQVRPRHITSLEVIKAGPHCPTAQLIATLKNGRKICLDLQAPLYKKIIKKLLES", "notes": "Made in E. coli BL21 from pET28a as inclusion bodies, purified on Ni-NTA under denaturing conditions and renatured; also called WT PF4; wild-type PF4; not shown: Vector-derived N-terminal tag and leader of pET28a (His tag used for Ni-NTA purification, BamHI/EcoRI insert)"}, "B2": {"name": "R20E/R22E: PF4 (SEQ ID NO: 1) double mutant, Arg20 and Arg22 mutated to Glu (protein)", "chain": "EAEEDGDLQCLCVKTTSQVEPEHITSLEVIKAGPHCPTAQLIATLKNGRKICLDLQAPLYKKIIKKLLES", "modifications": "Description ofsequence: PF4 sp|P02776|32-101"}, "B3": {"name": "K46E/R49E: PF4 (SEQ ID NO: 1) double mutant, Lys46 and Arg49 mutated to Glu (protein)", "chain": "EAEEDGDLQCLCVKTTSQVRPRHITSLEVIKAGPHCPTAQLIATLENGEKICLDLQAPLYKKIIKKLLES", "modifications": "Description ofsequence: PF4 sp|P02776|32-101"}, "B4": {"name": "R20E/R22E/K46E/R49E: PF4 (SEQ ID NO: 1) quadruple mutant defective in site 2 binding; dominant-negative antagonist (protein)", "chain": "EAEEDGDLQCLCVKTTSQVEPEHITSLEVIKAGPHCPTAQLIATLENGEKICLDLQAPLYKKIIKKLLES", "modifications": "Description ofsequence: PF4 sp|P02776|32-101", "notes": "dominant-negative antagonist"}},
  "key": {"soluble integrin αIIbβ3 [1]": {"target": "T1, soluble integrin αIIbβ3 (Homo sapiens, UniProt P05106+P08514)", "T1 construct": "Soluble recombinant αIIbβ3 or αvβ3 (AgroBio, 1 μg/ml); purchased AgroBio", "experiment": "ELISA-type integrin binding assay, soluble αIIbβ3", "conditions": "1 mM Mn2+", "procedure": "(§1) FIG. 2. PF4 specifically binds to soluble αIIbβ3 and αvβ3 in ELISA-type binding assays in 1 mM Mn^2+. FIG. 2a PF4 binds to soluble integrins in 1 mM Mn^2+ in ELISA-type binding assays. PF4 was immobilized to wells of 96-well microtiter plate and incubated with soluble αIIbβ3 or αvβ3 (1 μg/ml) in Tyrode-HEPES buffer with 1 mM Mn^2+ (to activate integrins) for 1 hr at room temperature and bound integrins were quantified using anti-β3 (mAb AV10) and HRP-conjugated anti-mouse IgG. Data are shown as means+/−SD in triplicate experiments. […] FIG. 2b Binding of authentic PF4 (Invitrogen) to integrins. Binding assays were performed as described in (a). PF4 (6.25 μg/ml) was used. Data are shown as means+/−SD in triplicate experiments. […] FIGS. 2c and d The binding of PF4 to integrins was suppressed by the distintegrin domain of ADAM15 fused to GST (ADAM15 disintegrin), but not by control GST. To establish the specificity of PF4 binding to soluble integrins αIIbβ3 (b) and αvβ3 (c), if ADAM15 disintegrin, which is known to bind to integrins αIIbβ3 (22) and αvβ3 (21), suppress the binding. […] Data are shown as means+/−SD in triplicate experiments. […] Bound integrins were quantified as described in (a). […]\n(§2) Wells of 96-well microtiter plates were coated with PF4. […] Bound αIIbβ3 or αvβ3 was measured using anti-integrin β3 mAb (AV-10) followed by HRP-conjugated goat anti-mouse IgG and peroxidase substrates."}, "soluble integrin αvβ3 [2]": {"target": "T2, soluble integrin αvβ3 (Homo sapiens, UniProt P05106+P06756)", "T2 construct": "Soluble recombinant αIIbβ3 or αvβ3 (AgroBio, 1 μg/ml); purchased AgroBio", "T2 sequence (P06756 31-992 limits assumed)": "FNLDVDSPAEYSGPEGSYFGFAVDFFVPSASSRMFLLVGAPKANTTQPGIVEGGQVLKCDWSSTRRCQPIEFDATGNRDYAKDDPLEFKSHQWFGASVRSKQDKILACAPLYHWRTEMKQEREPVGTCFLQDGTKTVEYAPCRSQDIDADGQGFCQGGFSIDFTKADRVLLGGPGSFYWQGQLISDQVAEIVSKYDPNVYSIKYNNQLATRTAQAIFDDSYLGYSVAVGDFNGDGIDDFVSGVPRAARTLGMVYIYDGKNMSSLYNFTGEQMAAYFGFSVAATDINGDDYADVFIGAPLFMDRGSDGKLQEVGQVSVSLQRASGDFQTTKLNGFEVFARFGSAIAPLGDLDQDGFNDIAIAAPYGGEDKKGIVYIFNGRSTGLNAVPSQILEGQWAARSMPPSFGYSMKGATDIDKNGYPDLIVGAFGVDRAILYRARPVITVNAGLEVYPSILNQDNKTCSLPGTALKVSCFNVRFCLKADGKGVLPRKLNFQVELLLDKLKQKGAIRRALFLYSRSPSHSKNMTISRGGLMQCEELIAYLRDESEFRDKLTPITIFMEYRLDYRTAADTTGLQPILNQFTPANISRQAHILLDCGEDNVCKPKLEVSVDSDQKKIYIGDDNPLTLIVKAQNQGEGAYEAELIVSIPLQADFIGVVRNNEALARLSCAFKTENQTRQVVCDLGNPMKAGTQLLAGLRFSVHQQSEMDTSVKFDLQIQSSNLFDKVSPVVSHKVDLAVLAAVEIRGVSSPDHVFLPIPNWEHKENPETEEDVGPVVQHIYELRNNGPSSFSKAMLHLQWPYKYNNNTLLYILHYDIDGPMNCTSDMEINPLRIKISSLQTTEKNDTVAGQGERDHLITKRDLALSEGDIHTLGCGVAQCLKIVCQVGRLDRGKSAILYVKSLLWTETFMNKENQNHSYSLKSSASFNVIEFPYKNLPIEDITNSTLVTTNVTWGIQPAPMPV", "T2 sequence (P05106 27-718 limits assumed)": "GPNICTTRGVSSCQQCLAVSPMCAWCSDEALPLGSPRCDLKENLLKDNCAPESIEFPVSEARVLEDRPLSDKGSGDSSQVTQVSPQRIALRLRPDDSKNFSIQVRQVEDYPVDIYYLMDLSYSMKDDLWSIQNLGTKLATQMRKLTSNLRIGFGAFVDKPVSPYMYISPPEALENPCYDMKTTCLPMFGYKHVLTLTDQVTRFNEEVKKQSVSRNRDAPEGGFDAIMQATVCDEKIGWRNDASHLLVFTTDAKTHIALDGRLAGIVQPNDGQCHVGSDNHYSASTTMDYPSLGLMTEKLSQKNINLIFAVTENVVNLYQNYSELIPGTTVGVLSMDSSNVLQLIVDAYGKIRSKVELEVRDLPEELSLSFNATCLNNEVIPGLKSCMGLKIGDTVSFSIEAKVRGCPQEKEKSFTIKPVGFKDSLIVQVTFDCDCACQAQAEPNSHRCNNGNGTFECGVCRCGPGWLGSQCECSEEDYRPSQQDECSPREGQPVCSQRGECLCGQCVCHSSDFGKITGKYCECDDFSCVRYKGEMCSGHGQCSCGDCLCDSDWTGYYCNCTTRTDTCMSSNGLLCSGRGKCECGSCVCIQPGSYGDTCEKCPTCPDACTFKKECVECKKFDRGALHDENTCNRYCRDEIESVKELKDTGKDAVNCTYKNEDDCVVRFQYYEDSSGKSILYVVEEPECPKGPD", "experiment": "ELISA-type integrin binding assay, soluble αvβ3", "conditions": "competitor 100 μg/ml; immobilized PF4 (12.5 g/ml); 1 mM Mn2+", "procedure": "as §1, §2"}, "[3]": {"target": "T3, soluble recombinant integrin αIIbβ3 (UniProt P08514 32-993; P05106 27-718)", "T3 construct": "Bought soluble heterodimer, used at 1 µg/ml; also called soluble αIIbβ3", "experiment": "ELISA-type binding: immobilized PF4, soluble αIIbβ3 1 µg/ml, 1 mM Mn2+, detection with anti-β3 mAb AV10", "quoted_text": "(§4) Data are shown as means+/−SD in triplicate experiments. […] Binding assays were performed as described in (a). […] Data are shown as means+/−SD in triplicate experiments. […] Data are shown as means+/−SD in triplicate experiments. […] Assays were performed as described in (a). Data is shown as means+/−SD in triplicate experiments. […] Wells were incubated with soluble integrins (1 μg/ml) in Tyrode-HEPES buffer with different cations (1 mM). Bound integrins were quantified as described in (a). Data are shown as means+/−SD in triplicate experiments."}, "[4]": {"target": "T4, soluble recombinant integrin αvβ3 (UniProt P06756 31-992; P05106 27-718)", "T4 construct": "Bought soluble heterodimer, used at 1 µg/ml; also called soluble αvβ3", "T4 sequence (P06756 31-992, chain 1 of 2)": "as the sequence (P06756 31-992 limits assumed) above", "T4 sequence (P05106 27-718, chain 2 of 2)": "as the sequence (P05106 27-718 limits assumed) above", "experiment": "ELISA-type binding: immobilized PF4, soluble αvβ3 1 µg/ml, 1 mM Mn2+, detection with anti-β3 mAb AV10", "quoted_text": "as §4"}, "soluble integrin αIIbβ3 [5]": {"target": "T1, soluble integrin αIIbβ3", "experiment": "ELISA-type integrin activation assay, soluble αIIbβ3 binding to immobilized γC390-411", "type": "biochemical", "conditions": "for ability of PF4 mutant to mediate RTO/PF4-induced αIIbβ3 activation: PF4 mutant in complex with anti-PF4 RTO, 1 mM Ca2+", "procedure": "FIG. 3. […] FIG. 3a. Anti-PF4 (RTO) markedly enhances PF4-induced activation of soluble αIIbβ3 in 1 mM Ca^2+ in ELISA-type activation assays in a dose-dependent manner at physiological concentrations of PF4 (below 1 μg/ml). The fibrinogen fragments γC390-411 (a specific ligand for αIIbβ3) was immobilized to wells of 96-well microtiter plate. […] Anti-PF4 (RTO or KKO, 10 μg/ml) were added (without heparin). After washing, bound integrins were quantified using anti-β3 (mAb AV10) and HRP-conjugated anti-mouse IgG. Mouse IgG (10 μg/ml) and no antibody were used as negative controls. Data are shown as means+/−SD in triplicate experiments. FIG. 3b. […] Commercial PF4 was used instead of our own PF4 preparation. Activation assays were performed as described in a. […] FIG. 3c. Point mutations in the predicted integrin-binding site (site 2) of PF4 suppressed activation of αIIbβ3 by the anti-PF4/PF4 complex. […] FIG. 3d. The R20E/R22E/K46E/R49E mutant suppressed integrin activation by the anti-PF4/PF4 complex. WT PF4 ([…]) and excess PF4 mutant (5 or 10 μg/ml) were used.\n(§3) Wells of 96-well microtiter plates were coated with γC390-411 (a specific ligand for αIIbβ3) or γC399tr (a specific ligand for αvβ3). Remaining protein binding sites were blocked with BSA. Soluble recombinant αIIbβ3 or αvβ3 (AgroBio, 1 μg/ml) was pre-incubated with chemokines PF4 or anti-PF4/PF4 for 10 min at room temperature and was added to the wells and incubated in HEPES-Tyrodes buffer with 1 mM CaCl2 for 1 h at room temperature. After unbound αIIbβ3 or αvβ3 was removed by rinsing the wells with binding buffer, bound αIIbβ3 or αvβ3 was measured using anti-integrin B3 mAb (AV-10) followed by HRP-conjugated goat anti-mouse IgG and peroxidase substrates."}, "soluble integrin αvβ3 [6]": {"target": "T2, soluble integrin αvβ3", "experiment": "ELISA-type integrin activation assay, soluble αvβ3 binding to immobilized γC399tr", "type": "biochemical", "conditions": "for ability of PF4 mutant to mediate RTO/PF4-induced αvβ3 activation: PF4 mutant in complex with anti-PF4 RTO, 1 mM Ca2+", "procedure": "FIG. 4. […] FIG. 4a. Anti-PF4 (RTO) markedly enhances PF4-induced activation of soluble αvβ3 in 1 mM Ca^2+ in ELISA-type activation assays. Fibrinogen fragment γC399tr (151-399 segment of fibrinogen γ chain, a specific ligand for αvβ3) was immobilized to wells of 96-well microtiter plate. […] Anti-PF4 (RTO or KKO, 10 μg/ml) were added (without heparin). After washing, bound integrins were quantified using anti-β3 (mAb AV10) and HRP-conjugated anti-mouse IgG. Mouse IgG (10 μg/ml) and no antibody were used as negative controls. […] FIG. 4b. […] Commercial PF4 was used instead of our own PF4 preparation. Activation assays were performed as described in a. […] FIG. 4c. Point mutations in the predicted integrin-binding site (site 2) of PF4 suppressed activation of αvβ3 by the anti-PF4/PF4 complex. […] FIG. 4d. The R20E/R22E/K46E/R49E mutant suppressed integrin activation by the RTO/PF4 complex. WT PF4 (0.5 μg/ml) and excess PF4 mutant (5 or 10 μg/ml) were used.\nas §3"}},
  "note": "Positions of bridges follow the written chain, without caps; N, C: chain ends. Non-standard residues stand in square brackets, D forms with d. Residues, ends and D or L forms follow the SMILES beside them. hArg = N=C(N)NCCCC[C@H](N)C(=O)O; Mpa = O=C(O)CCS",
  "data": [
    {"molecule": "N=C(N)NCCCC[C@@H]1NC(=O)CCSSC[C@@H](C(N)=O)NC(=O)[C@@H]2CCCN2C(=O)[C@H](Cc2c[nH]c3ccccc23)NC(=O)[C@H](CC(=O)O)NC(=O)CNC1=O", "note": "[eptifibatide] ([Mpa][hArg]GDWPC-NH2; disulfide 1-7)", "values": [
      {"measurement": "effect of integrin antagonists on PF4 binding to αIIbβ3", "setting": "soluble integrin αIIbβ3 [1]; PF4 coated at 50 μg/ml, mAb 7E3 10 μg/ml, eptifibatide 0.65 μg/ml, cyclic RGDfV 10 μM", "result": "weak inhibition"}
    ]},
    {"molecule": "ADAM15 disintegrin: disintegrin domain of ADAM15 fused to GST, known to bind integrins αIIbβ3 and αvβ3", "values": [
      {"measurement": "suppression of αIIbβ3 binding to immobilized PF4", "setting": "soluble integrin αIIbβ3 [1]; competitor 100 μg/ml, immobilized PF4 (12.5 g/ml)", "result": "suppressed"},
      {"measurement": "suppression of αvβ3 binding to immobilized PF4", "setting": "soluble integrin αvβ3 [2]", "result": "suppressed"}
    ]},
    {"molecule": "B1", "values": [
      {"measurement": "Kd", "setting": "[3]", "result": "< 1", "unit": "µg/mL"},
      {"measurement": "Kd", "setting": "[4]", "result": "< 1", "unit": "µg/mL"}
    ]},
    {"molecule": "B2", "values": [
      {"measurement": "ability of PF4 mutant to mediate RTO/PF4-induced αIIbβ3 activation", "setting": "soluble integrin αIIbβ3 [5]", "result": "reduced ability"},
      {"measurement": "ability of PF4 mutant to mediate RTO/PF4-induced αvβ3 activation", "setting": "soluble integrin αvβ3 [6]", "result": "reduced ability"}
    ]},
    {"molecule": "B3", "values": [
      {"measurement": "ability of PF4 mutant to mediate RTO/PF4-induced αIIbβ3 activation", "setting": "soluble integrin αIIbβ3 [5]", "result": "reduced ability"},
      {"measurement": "ability of PF4 mutant to mediate RTO/PF4-induced αvβ3 activation", "setting": "soluble integrin αvβ3 [6]", "result": "reduced ability"}
    ]},
    {"molecule": "B4", "values": [
      {"measurement": "ability of PF4 mutant to mediate RTO/PF4-induced αIIbβ3 activation", "setting": "soluble integrin αIIbβ3 [5]", "result": "most effectively reduced"},
      {"measurement": "suppression of αIIbβ3 activation by the anti-PF4/PF4 complex (antagonist effect)", "setting": "soluble integrin αIIbβ3 [5]; WT PF4 (0.5 g/ml) and excess PF4 mutant (5 or 10 μg/ml), RTO", "result": "suppressed"},
      {"measurement": "ability of PF4 mutant to mediate RTO/PF4-induced αvβ3 activation", "setting": "soluble integrin αvβ3 [6]", "result": "most effectively reduced"},
      {"measurement": "suppression of αvβ3 activation by the RTO/PF4 complex (antagonist effect)", "setting": "soluble integrin αvβ3 [6]; WT PF4 (0.5 μg/ml) and excess PF4 mutant (5 or 10 μg/ml), RTO", "result": "suppressed"}
    ]}
  ]
}
